Holding throughout (type): binding
The target in assay [1] is T1, human Claudin18.2 (Homo sapiens, UniProt P56856).
T1 construct: expressed in transfected cells
In words: Cell-based ELISA affinity on NUGC4-Claudin18.2 (human) cells.

For a further assay, the target named is T2, rat Claudin18.2 (Rattus norvegicus, UniProt Q5I0E5).
T2 construct: expressed in transfected cells
In words: FACS species affinity on HEK293T-Claudin18.2 (rat) cells. The note with it: cell-based FACS. As to the method:
(§1) The affinity of the anti-human Claudin18.2 humanized monoclonal antibodies for Claudin18.2 of different species was determined by flow cytometry (FACS). The experimental procedures were as follows: HEK293T-Claudin18.2 (cynomolgus monkey) cells, HEK293T-Claudin18.2 (mouse) cells and HEK293T-Claudin18.2 (rat) cells were digested, collected by centrifugation, washed three times with pre-cooled PBS, resuspended in 1% BSA (in PBS), and added to a 96-well pointed bottom plate at 3×10^5 cells/well. Each antibody subjected to gradient dilution was added, and the mixture was incubated at 4° C. for 1 h. The cells were washed three times with pre-cooled PBS, and then 1 μL of a fluorescent secondary antibody (APC: Biolegend-410712) was added to each well. The mixture was incubated at 4° C. for 0.5 h, and the cells were washed three times with pre-cooled PBS, then resuspended, and assayed on a flow cytometer.

In a further assay the target is T3, mouse Claudin18.2 (Mus musculus, UniProt P56857).
T3 construct: expressed in transfected cells
The assay is described as follows: FACS species affinity on HEK293T-Claudin18.2 (mouse) cells. The note with it: cell-based FACS. As to the method:
as §1

The target in assay [2] is T1, human Claudin18.2. In words: Cell-based FACS affinity on NUGC4 cells. As to the method:
(§2) The affinity of the anti-human Claudin18.2 humanized antibodies was detected by flow cytometry. The experimental procedures were as follows: The adherent cultured HEK293T-Claudin18.2 (human), NUGC4-Claudin18.2 (human) and NUGC4 cells were digested, collected by centrifugation, and washed three times with pre-cooled PBS. The cells were resuspended in 1% BSA (in PBS) and added to a 96-well pointed bottom plate at 3×10^5 cells/well, with a volume of 50 μL per well. Each test antibody was diluted with 1% BSA (in PBS) (starting at 100 μg/mL, diluted in a 3-fold gradient, for 10 concentration points). The test antibody subjected to gradient dilution was added to the cells at 50 μL/well, and the mixture was well mixed and incubated at 4° C. for 1 h. The cells were collected by centrifugation, washed three times with pre-cooled PBS, and resuspended in 50 μL of 1% BSA (in PBS). 1 μL of a fluorescent secondary antibody (Biolegend-410712) was added to each well, and the mixture was well mixed and incubated at 4° C. for 0.5 h. The cells were collected by centrifugation, washed three times with pre-cooled PBS, resuspended in 200 μL of PBS, and assayed on a machine.

Assay [3] concerns cynomolgus monkey Claudin18.2. In words: FACS species affinity on HEK293T-Claudin18.2 (cynomolgus monkey) cells. The note with it: cell-based FACS. How it is done:
as §1

Assay [4] addresses T1, human Claudin18.2. In words: Cell-based ELISA affinity of humanized antibodies on HEK293T-Claudin18.2 (human) cells. The note with it: HEK293T-Claudin18.2 cells. How it is done:
The affinity of the anti-human Claudin18.2 murine monoclonal antibodies was evaluated by cell-based ELISA. The experimental procedures were as follows: The day before the experiment, HEK293T-Claudin18.2 (human) cells were plated in a 96-well plate at 5×10^4 cells/well. On the day of the experiment, the supernatant was removed, the cells in each well were washed once with 300 μL of PBS, and 100 μL of 4% paraformaldehyde was added to each well for fixation at room temperature for 20 min. Paraformaldehyde was then removed, and the cells in each well were washed twice with 300 μL of PBS. 100 μL of 2% BSA (in PBS) was added to each well, and the mixture was blocked at 37° C. for 2 h. After removing the blocking solution, each antibody subjected to gradient dilution (diluted with 2% BSA (in PBS), starting at […], in a 3-fold gradient, for a total of 11 concentration points) was added to the plate at 100 μL/well, and the mixture was incubated at 37° C. for 2 h. The supernatant was removed, and the cells in each well were washed three times with 300 μL of PBST. 100 μL of an anti-mouse IgG HRP secondary antibody (Jackson, cat #115-035-003) in 2% BSA was added to each well, and the mixture was incubated at 37° C. for 1 h. The secondary antibody was then removed, and the cells in each well were washed five times with 300 μL of PBST, followed by the addition of 100 μL of a TMB substrate (Huzhou InnoReagents Co., Ltd.) per well for color development for 5-20 min. The reaction was stopped by adding 50 μL of 2 N HCl to each well, and OD450 nm values were read on a microplate reader (manufacturer: MD, model: SpectraMax). The values obtained were plotted by GraphPad Prism to calculate the EC50 value.
The affinity of the anti-human Claudin18.2 humanized monoclonal antibodies was determined by cell-based ELISA. The cell-based ELISA was conducted as described in Example I-3.

The target in assay [5] is T1, human Claudin18.2. The assay is described as follows: Cell-based FACS affinity on NUGC4-Claudin18.2 (human) cells. How it is done: as §2

T3 sequence (P56857 1-264 isoform P56857-3): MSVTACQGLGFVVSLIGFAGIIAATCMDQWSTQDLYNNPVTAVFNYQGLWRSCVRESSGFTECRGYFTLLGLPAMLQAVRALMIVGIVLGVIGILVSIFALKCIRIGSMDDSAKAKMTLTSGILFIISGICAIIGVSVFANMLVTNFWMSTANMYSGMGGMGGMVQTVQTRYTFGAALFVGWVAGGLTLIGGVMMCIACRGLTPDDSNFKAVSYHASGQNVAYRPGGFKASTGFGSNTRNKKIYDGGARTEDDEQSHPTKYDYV
T2 sequence (Q5I0E5 1-261 isoform Q5I0E5-2): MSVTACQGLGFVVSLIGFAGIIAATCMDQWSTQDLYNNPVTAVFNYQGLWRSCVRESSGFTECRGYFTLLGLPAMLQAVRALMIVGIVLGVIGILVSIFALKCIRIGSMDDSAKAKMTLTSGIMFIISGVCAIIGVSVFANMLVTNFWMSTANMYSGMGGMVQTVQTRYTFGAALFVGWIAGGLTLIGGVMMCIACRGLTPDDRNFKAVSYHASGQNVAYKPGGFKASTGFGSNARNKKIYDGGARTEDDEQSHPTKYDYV

B1: 25C7A5-HZ1: humanized anti-Claudin18.2 antibody, VH SEQ ID NO: 1, VL SEQ ID NO: 2, human IgG1/Kappa constant regions (antibody, V domains shown)
VH: QVQLVQSGAEVKKPGSSVKVSCKASGYTFTNYWLHWVRQAPGQGLEWMGMMHPISGSSNYAQKFQGRATLTVDKSTSTAYMELSSLRSEDTAVYYCARGLLSAMDYWGQGTLVTVSS
VL: EIVLTQSPATLSLSPGERATLSCKASENVKTYVSWYQQKPGQSPRLLIYEASNRYTGVPARFSGSGSATDFTLTISSLEPEDFAVYFCGQTYSFPPTFGQGTKVEIK
modifications: human IgG1/kappa constant regions
On to B1, for which the “NUGC4-Claudin18.2 EC50” value with human Claudin18.2 [1] amounted to 0.1076 µg/mL. Besides, in the assay with human Claudin18.2 [1] (OD450), the “NUGC4-Claudin18.2 Maximum signal value” is reported as 1.284. Further, in the assay with rat Claudin18.2, the “HEK293T-Claudin18.2 (rat) EC50” value came to 1.672 µg/mL. In the assay with mouse Claudin18.2, the “HEK293T-Claudin18.2 (mouse) EC50” value amounted to 0.9407 µg/mL. Besides, the “binding to NUGC4 (in words)” value with human Claudin18.2 [2] is “significant binding”. For the same molecule, the “HEK293T-Claudin18.2 (cynomolgus monkey) EC50” value in assay [3] came to 0.2398 µg/mL. The “Affinity detected by cell-based ELISA (EC50, ng/mL) HEK293T-Claudin18.2” value in the assay with human Claudin18.2 [4] stood at 11.15 ng/mL. Also, in the assay with human Claudin18.2 [5], the “NUCG4- Claudin18.2 EC50” value was 3.192 µg/mL and the “NUCG4- Claudin18.2 Maximum signal value” turned out to be 871132.

B2: 25C7A5-HZ2: humanized anti-Claudin18.2 antibody, VH SEQ ID NO: 3, VL SEQ ID NO: 2, human IgG1/Kappa constant regions (antibody, V domains shown)
VH: QVQLVESGAEVKKPGSSVKVSCKASGYTFTNYWLHWVRQAPGQGLEWMGMMHPISGSSNYAQKFQGRATLTVDKSTSTAYMELSSLRSEDTAVYYCARGLLSAMDYWGQGTLVTVSS
VL: EIVLTQSPATLSLSPGERATLSCKASENVKTYVSWYQQKPGQSPRLLIYEASNRYTGVPARFSGSGSATDFTLTISSLEPEDFAVYFCGQTYSFPPTFGQGTKVEIK
modifications: human IgG1/kappa constant regions
As to B2, in assay [3], the “HEK293T-Claudin18.2 (cynomolgus monkey) EC50” value was determined as 0.2133 µg/mL. Moreover, the “Affinity detected by cell-based ELISA (EC50, ng/mL) HEK293T-Claudin18.2” value in the assay with human Claudin18.2 [4] is listed as 11.17 ± 2.19(N = 2) ng/mL.
